This is an account of results in US20250002610A1 (Genmab, published 2025).

Experiment [1] concerns the target T1, human DR4 (Death Receptor 4), cell surface expressed on human tumor cell lines (human, UniProt O00220 24-468).
T1 construct: also called TNFRSF10A; TRAIL-R1
T1 sequence: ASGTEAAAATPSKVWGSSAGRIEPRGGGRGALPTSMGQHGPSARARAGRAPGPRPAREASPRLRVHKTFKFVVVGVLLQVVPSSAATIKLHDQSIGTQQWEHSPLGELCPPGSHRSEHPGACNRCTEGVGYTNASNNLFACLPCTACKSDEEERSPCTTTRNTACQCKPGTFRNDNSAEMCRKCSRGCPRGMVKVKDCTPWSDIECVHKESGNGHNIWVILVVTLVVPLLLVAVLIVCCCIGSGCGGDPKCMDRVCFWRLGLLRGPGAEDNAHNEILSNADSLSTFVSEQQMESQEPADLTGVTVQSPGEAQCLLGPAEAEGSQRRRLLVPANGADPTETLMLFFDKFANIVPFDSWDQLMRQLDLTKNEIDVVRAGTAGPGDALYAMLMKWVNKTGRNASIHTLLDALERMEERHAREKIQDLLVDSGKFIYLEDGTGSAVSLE
In words: flow cytometry, HCT-15 cells, n = 2.

Experiment [2] has as its target T2, human FAPα (Fibroblast activation protein alpha), cell surface expressed (human, UniProt Q12884 1-760).
T2 construct: Endogenous on human lung fibroblasts and CAFs
T2 sequence: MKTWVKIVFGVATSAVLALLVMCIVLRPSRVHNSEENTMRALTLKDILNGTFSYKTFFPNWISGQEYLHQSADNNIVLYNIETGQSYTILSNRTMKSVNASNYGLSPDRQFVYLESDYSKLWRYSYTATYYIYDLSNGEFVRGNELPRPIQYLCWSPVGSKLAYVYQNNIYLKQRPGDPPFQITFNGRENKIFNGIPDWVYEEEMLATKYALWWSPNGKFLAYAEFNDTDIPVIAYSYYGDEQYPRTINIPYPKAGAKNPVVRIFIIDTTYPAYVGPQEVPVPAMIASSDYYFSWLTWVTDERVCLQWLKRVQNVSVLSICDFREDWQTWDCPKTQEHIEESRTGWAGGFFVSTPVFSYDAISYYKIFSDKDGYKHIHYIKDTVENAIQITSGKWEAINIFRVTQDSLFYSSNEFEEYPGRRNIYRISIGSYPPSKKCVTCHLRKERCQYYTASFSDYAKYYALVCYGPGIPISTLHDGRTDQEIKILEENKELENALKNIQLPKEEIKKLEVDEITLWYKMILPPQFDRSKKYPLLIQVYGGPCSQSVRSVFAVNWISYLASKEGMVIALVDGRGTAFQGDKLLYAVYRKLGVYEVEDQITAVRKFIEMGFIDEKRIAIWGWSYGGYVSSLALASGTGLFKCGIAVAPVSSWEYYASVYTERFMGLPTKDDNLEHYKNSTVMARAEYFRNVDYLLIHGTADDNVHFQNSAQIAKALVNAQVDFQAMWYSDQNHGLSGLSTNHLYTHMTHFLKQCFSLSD
As to the kind of experiment: flow cytometry, human lung fibroblasts, n = 1. Here is the method:
(§1) Binding of bispecific or monoclonal antibodies carrying the anti-FAPα arm derived from IgG1-FAPα-FERL (BisG1-FAPα-FERL/DR4-FERR, BisG1-FAPα-FERL/b12-FERR, and IgG1-FAPα-FERL) to cell surface expressed human FAPα was analyzed by flow cytometry using human lung fibroblasts and CAFs, which endogenously express FAPα. BisG1-b12-FERL/b12-FERR was used as negative control.
(§2) Human lung fibroblasts and CAFs (50,000 cells/well) were seeded in 96-Well round bottom plates (Greiner Bio-one, Cat #650101). Antibody dilutions were prepared using fluorescence-activated cell sorting (FACS) buffer, consisting of phosphate buffer saline (PBS, Lonza, Cat #BE17-517Q)+1% Bovine Serum Albumin (BSA, Roche, Cat #10735086001)+0.02% Sodium Azide (Bio-World, Cat #41920044-3). Plates were centrifuged, supernatant was removed, cells were resuspended in 50 μL of human Fc Block (BD, Cat #564220, diluted 1:100 in FACS buffer) and 50 μL of viability stain TO-PRO-3 Iodide (Thermo Fisher, Cat #T3605, diluted 1: 25,000 in FACS buffer), and incubated for 15 min at 4° C. Plates were washed three times with FACS buffer. Plates were centrifuged, supernatant was removed, cells were resuspended in 50 μL of antibody dilutions (concentration range 90-0.0005 μg/mL, three-fold dilution steps using FACS buffer) of BisG1-FAPα-FERL/DR4-FERR, BisG1-FAPα-FERL/b12-FERR, BisG1-b12-FERL/b12-FERR (top six concentrations only for CAFs culture) or IgG1-FAPα-FERL (top four concentrations only for CAFs culture) and incubated for 30 min at 4° C. Cells were washed three times with FACS buffer and resuspended in 50 μL of Fluorescein isothiocyanate (FITC)-labeled polyclonal antibody goat anti-mouse IgG1 (Jackson Immuno Research, Cat #109-096-097, diluted 1:100 in FACS buffer). […] Antibody binding to viable cells (TO-PRO-3 negative) was analyzed by flow cytometry on a FACSCelesta™ (BD biosciences) and data were processed using FlowJo_v10.8.1 (FlowJo LLC). Geomean fluorescence intensity, gMFI, was determined and visualized using GraphPad Prism.

The target of experiment [3] is T2, human FAPα (Fibroblast activation …). In words: flow cytometry, human lung fibroblasts, average ± SEM. As for the experimental part:
as §1, §2

Experiment [4] concerns the target T1, human DR4 (Death Receptor 4), cell …. In words: flow cytometry, MDA-MB-231 cells, n = 2.

B1: BisG1-FAPα-FERL/DR4-FERR (bispecific antibody, human IgG1, kappa, lambda)
heavy 1: EVQLLESGGGLVQPGGSPRLSCEASGFTFSSYALSWVRQAPGKGLEWVSAISGSGGGRYYADSVKGRFTISRDNSKNTLFLQMNSLRAEDTAVYYCAKEGYSSSGTYWDHWGQGTLVTVSSASTKGPSVFPLAPSSKSTSGGTAALGCLVKDYFPEPVTVSWNSGALTSGVHTFPAVLQSSGLYSLSSVVTVPSSSLGTQTYICNVNHKPSNTKVDKRVEPKSCDKTHTCPPCPAPEFERGPSVFLFPPKPKDTLMISRTPEVTCVVVDVSHEDPEVKFNWYVDGVEVHNAKTKPREEQYNSTYRVVSVLTVLHQDWLNGKEYKCKVSNKALPAPIEKTISKAKGQPREPQVYTLPPSREEMTKNQVSLTCLVKGFYPSDIAVEWESNGQPENNYKTTPPVLDSDGSFLLYSKLTVDKSRWQQGNVFSCSVMHEALHNHYTQKSLSLSPG
light 1: AIQMTQSPSSVSASVGDRVTITCRASQGVSSWLAWYQQKPGRAPKLLIYVASTLQSGVPSRFSGSGSGTDFTLTINSLQPEDFATYYCQQANSFPPTFGQGTRLEMKRTVAAPSVFIFPPSDEQLKSGTASVVCLLNNFYPREAKVQWKVDNALQSGNSQESVTEQDSKDSTYSLSSTLTLSKADYEKHKVYACEVTHQGLSSPVTKSFNRGEC
heavy 2: QVQLQESGPGLVKPSGTLSLTCAVSGGSISSYSWWSWIRQPPGKGLEWIGELYHSGSTNYNPSLKSRVTISVDKSKNQFSLKLRSVTAADTAVYYCVRGVATIDYWGQGTLVTVSSASTKGPSVFPLAPSSKSTSGGTAALGCLVKDYFPEPVTVSWNSGALTSGVHTFPAVLQSSGLYSLSSVVTVPSSSLGTQTYICNVNHKPSNTKVDKRVEPKSCDKTHTCPPCPAPEFERGPSVFLFPPKPKDTLMISRTPEVTCVVVDVSHEDPEVKFNWYVDGVEVHNAKTKPREEQYNSTYRVVSVLTVLHQDWLNGKEYKCKVSNKALPAPIEKTISKAKGQPREPQVYTLPPSREEMTKNQVSLTCLVKGFYPSDIAVEWESNGQPENNYKTTPPVLDSDGSFFLYSRLTVDKSRWQQGNVFSCSVMHEALHNHYTQKSLSLSPG
light 2: QSALTQPPSASGSPGQSVTISCTGTSSDVGGYNFVSWYQQDPGKAPKLLIYEVTKRPSGVPDRFSGSKSGNTASLTVSGLQAEDEADYYCSSYAGSNNVMFGGGTKLTVLGQPKAAPSVTLFPPSSEELQANKATLVCLISDFYPGAVTVAWKADSSPVKAGVETTTPSKQSNNKYAASSYLSLTPEQWKSHRSYSCQVTHEGSTVEKTVAPTECS
notes: Human IgG1 bispecific made by controlled Fab-arm exchange of IgG1-FAPα-FERL and IgG1-DR4-FERR; monovalent for FAPα and for DR4; also called GEN1057
Turning to B1, the EC50 in experiment [1] was 0.69 mg/L; in experiment [2], 0.046 mg/L; in experiment [3] it was 0.051 mg/L; in experiment [4], 1.24 mg/L.
